# Ends that are not written are not given here.
# T1: NRP2b peptide (biotinylated) (human, biotin-conjugated, site not stated)
# T1 construct: also called NRP2b isoform specific peptide
# T1 peptide: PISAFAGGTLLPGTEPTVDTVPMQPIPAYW
# T2: human NRP2b expressed on Expi293F cells (human)
# T2 construct: also called full length NRP2b
# T2 chain: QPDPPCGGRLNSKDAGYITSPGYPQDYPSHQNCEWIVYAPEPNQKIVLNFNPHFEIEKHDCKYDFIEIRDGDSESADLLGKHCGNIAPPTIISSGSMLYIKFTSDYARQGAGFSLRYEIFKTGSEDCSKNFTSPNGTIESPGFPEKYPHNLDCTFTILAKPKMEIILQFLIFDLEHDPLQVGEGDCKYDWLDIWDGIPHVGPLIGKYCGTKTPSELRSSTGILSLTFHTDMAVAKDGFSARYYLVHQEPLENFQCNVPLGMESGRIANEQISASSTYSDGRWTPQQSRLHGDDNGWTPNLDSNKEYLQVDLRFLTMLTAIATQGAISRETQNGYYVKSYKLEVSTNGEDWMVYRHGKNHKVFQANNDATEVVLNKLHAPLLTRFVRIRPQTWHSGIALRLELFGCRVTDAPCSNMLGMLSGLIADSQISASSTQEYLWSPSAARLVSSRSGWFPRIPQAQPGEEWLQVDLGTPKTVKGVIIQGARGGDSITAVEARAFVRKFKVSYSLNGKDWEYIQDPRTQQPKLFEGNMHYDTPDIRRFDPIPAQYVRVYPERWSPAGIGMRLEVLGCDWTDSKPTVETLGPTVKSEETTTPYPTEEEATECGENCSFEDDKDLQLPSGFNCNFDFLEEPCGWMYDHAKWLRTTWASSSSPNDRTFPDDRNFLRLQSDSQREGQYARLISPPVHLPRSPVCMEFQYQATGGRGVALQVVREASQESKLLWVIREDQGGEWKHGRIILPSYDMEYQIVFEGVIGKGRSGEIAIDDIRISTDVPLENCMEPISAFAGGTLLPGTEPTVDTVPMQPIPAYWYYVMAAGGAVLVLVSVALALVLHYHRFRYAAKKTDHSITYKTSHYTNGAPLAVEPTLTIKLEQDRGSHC
# T3: NRP2v3
# T3 construct: not the NanoLuc-tagged construct m33; also called human NRP2 v3 expressed on Expi293F cells; NRP2a v3
# T3 chain: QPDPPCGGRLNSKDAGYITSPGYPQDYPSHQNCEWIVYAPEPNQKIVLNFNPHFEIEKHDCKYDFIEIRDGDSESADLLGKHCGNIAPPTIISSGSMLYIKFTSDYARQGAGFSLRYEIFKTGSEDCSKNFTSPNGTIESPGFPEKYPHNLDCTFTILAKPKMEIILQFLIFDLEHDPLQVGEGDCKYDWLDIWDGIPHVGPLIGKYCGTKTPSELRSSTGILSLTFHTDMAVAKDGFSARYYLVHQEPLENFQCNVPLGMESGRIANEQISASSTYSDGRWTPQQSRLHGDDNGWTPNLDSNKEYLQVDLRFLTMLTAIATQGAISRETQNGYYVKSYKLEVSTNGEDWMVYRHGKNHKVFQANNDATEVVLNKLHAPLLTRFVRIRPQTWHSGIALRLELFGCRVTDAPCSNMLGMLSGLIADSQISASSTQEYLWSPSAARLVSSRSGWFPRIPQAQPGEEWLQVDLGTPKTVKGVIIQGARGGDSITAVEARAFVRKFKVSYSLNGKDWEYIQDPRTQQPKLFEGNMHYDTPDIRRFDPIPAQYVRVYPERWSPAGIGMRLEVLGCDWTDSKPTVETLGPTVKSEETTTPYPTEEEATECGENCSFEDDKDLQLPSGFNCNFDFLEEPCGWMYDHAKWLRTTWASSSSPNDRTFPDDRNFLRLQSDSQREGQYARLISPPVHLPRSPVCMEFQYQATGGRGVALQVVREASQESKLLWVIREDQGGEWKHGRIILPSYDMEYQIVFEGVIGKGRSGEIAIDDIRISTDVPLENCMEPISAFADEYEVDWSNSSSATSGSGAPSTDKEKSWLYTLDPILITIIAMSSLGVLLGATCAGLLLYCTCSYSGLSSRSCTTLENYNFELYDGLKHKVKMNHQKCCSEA
# T4: NRP2a_scan 2 peptide (biotinylated) (human, also: biotin-conjugated, site not given here)
# T4 peptide: PEIHEREGYEDE
# T5: NRP2a_scan 5 peptide (biotinylated) (human, also: biotin-conjugated, site not given here)
# T5 peptide: EDEIDDEYEVDW
# T6: NRP2a_scan 4 peptide (biotinylated) (human, also: biotin-conjugated, site not given here)
# T6 peptide: EGYEDEIDDEYE
# T7: NRP2a_scan 1 peptide (biotinylated) (human, also: biotin-conjugated, site not given here)
# T7 peptide: VDIPEIHEREGY
# T8: NRP2a_scan 3 peptide (biotinylated) (human, also: biotin-conjugated, site not given here)
# T8 peptide: HEREGYEDEIDD
# T9: Mid-NRP2A peptide (biotinylated) (human, biotin-conjugated, site not stated)
# T9 peptide: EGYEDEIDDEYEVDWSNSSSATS
# T10: NRP2a_scan 7 peptide (biotinylated) (human, also: biotin-conjugated, site not given here)
# T10 peptide: EYEVDWSNSSSA
# T11: NRP2a_scan 6 peptide (biotinylated) (human, also: biotin-conjugated, site not given here)
# T11 peptide: IDDEYEVDWSNS
# T12: Mid-mNRP2A peptide (biotinylated) (mouse, biotin-conjugated, site not stated)
# T12 peptide: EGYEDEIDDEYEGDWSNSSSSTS
# B1: aNRP2-37v2 (antibody, V domains shown)
# VH: DVKLVESGEGLVKPGGSLKLSCAASGFTFSDYALSWVRQTPEKRLEWVAYISSGGDYIYYADTVRGRFTISRDNARNTLYLQMSSLQSEDTAIYYCTRGGQDDYWGQGTTLTVSS
# VL: DVVMTQTPLSLPVILGDQASISCRSSQSLVHSNGNTYLQWYLQKPGQSPKLLIYKVSNRFSGVPDRFSGSGSGTDFTLKISRVEAEDLGVYFCSQSTHVPFTFGSGTNLEIK
# notes: Mouse monoclonal (captured by anti-murine kappa, detected with anti-mouse IgG)
# B2: aNRP2-402v2 (antibody, V domains shown)
# VH: EVQLVESGGDLVKPGGSLKLSCAASGFTFSNYAMSWVRQTPEKRLEWVASISDGGSYTYYPDNVKGRFTISRDSAKKSLYLQMSHLKSEDTAMYYCTKDGGPREGYFDVWGTGTTVTVSS
# VL: DVLMTQTPLSLPVSLGDQASISCRSSQSIVHSNGNTYLEWYLQKPGQSPKLLIYKVSNRFSGVPDRFSGSGSGTDFTLKISRVEAEDLGVYYCFQGSHVPYTFGGGTKLEIK
# notes: Mouse monoclonal
# B3: aNRP2-406v2 (antibody, V domains shown)
# VH: EVQLQQSGPELVKPGASVKISCKASGYSFTGYFMNWVKQSHGKSLEWIGRINPYNGDTFYNQKFKGKATLTVDKSSSTAHMALLSLTSEDSAVYYCGREVAEVPFDYWGQGTTLTVSS
# VL: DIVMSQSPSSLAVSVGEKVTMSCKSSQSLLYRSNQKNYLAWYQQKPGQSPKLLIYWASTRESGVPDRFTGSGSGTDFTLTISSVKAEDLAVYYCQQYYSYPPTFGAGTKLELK
# notes: Mouse monoclonal
# B4: aNRP2-407v2 (antibody, V domains shown)
# VH: EVQLQQSGPELVKPGASVTISCKASGYSFTGYYMHWVKQSHVKSLEWIGRINPYNGATSYSQNFKDKASLTIDKSSSTAYMELHSLTSEDSAVYYCAREETTAPFTYWGQGTLVTVSA
# VL: DIVMSQSPSSLAVSVGEKVTMSCKSSQSLLYSSNQKNYLAWYQQKPGQSPKLLIYWASTRESGVPDRFTGSGSGTDFTLTISSVQAEDLAVYFCQHYYSYPPTFGGGTKLEIK
# notes: Mouse monoclonal
# Experiments:
# [1] = molecular target: T1, NRP2b peptide (biotinylated); assay: BLI, peptide on sensor
# [2] = molecular target: T2, human NRP2b expressed on Expi293F cells; assay: flow cytometry, Expi293F cells transfected with the target, fluorescent anti-mouse secondary; MFI signal relative to mock-transfected cells
# Procedure: (§1) Signal to noise was calculated as the staining intensity of transfected cells compared to an un-transfected ‘mock’ population.
# [3] = molecular target: T3, NRP2v3; assay: as above
# Procedure: as §1
# [4] = molecular target: T13, NRP2A peptide (biotinylated) (human, biotin-conjugated, site not stated); assay: BLI, isoform peptide on sensor, 50 nM antibody
# T13 construct: also called NPR2A; NRP2a specific peptide
# [5] = molecular target: T14, human NRP2a v2 expressed on Expi293F cells (human, UniProt O60462 23-931); assay: flow cytometry, Expi293F cells transfected with the target, fluorescent anti-mouse secondary; MFI signal relative to mock-transfected cells
# T14 construct: cDNA Origene RCC220706; also called NRP2 v2
# Procedure: as §1
# [6] = molecular target: T4, NRP2a_scan 2 peptide (biotinylated); assay: BLI, peptide on sensor;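 further: octet RED96e biolayer interferometry with biotin-conjugated NRP2 peptides spanning isoform-specific regions (human and mouse) loaded on biosensors, antibodies applied at 50 nM, association read over 300 s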
# Procedure: (§2) Biolayer interferometry (BLI) experiments were carried out on an Octet RED96e instrument (Sartorius) to further characterize antibody affinities to the NRP2 peptides screened above. Antibodies were epitope mapped using peptides that span the NRP2a isoform specific region; antibodies were also tested for reactivity to an NRP2b isoform specific peptide and cross-reactivity to mNRP2a and mNRP2b peptides (see Table E2 for peptide sequences).
# (§3) Antibodies and peptides were diluted in 1×PBS, 0.1% BSA, 0.02% Tween 20, pH 7.4. […] The biosensors were then dipped into 50 nM solutions of each antibody and read for 300s. The biosensors were regenerated in 10 mM glycine, pH 1.5 in between cycles of different antibodies.
# [7] = molecular target: T5, NRP2a_scan 5 peptide (biotinylated); assay: BLI, peptide on sensor;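 further: octet RED96e biolayer interferometry with biotin-conjugated NRP2 peptides spanning isoform-specific regions (human and mouse) loaded on biosensors, antibodies applied at 50 nM, association read over 300 s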
# Procedure: as §2, §3
# [8] = molecular target: T6, NRP2a_scan 4 peptide (biotinylated); assay: BLI, peptide on sensor;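 further: octet RED96e biolayer interferometry with biotin-conjugated NRP2 peptides spanning isoform-specific regions (human and mouse) loaded on biosensors, antibodies applied at 50 nM, association read over 300 s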
# Procedure: as §2, §3
# [9] = molecular target: T15, mNRP2b peptide (biotinylated) (mouse, biotin-conjugated, site not stated); assay: BLI, peptide on sensor
# [10] = molecular target: T7, NRP2a_scan 1 peptide (biotinylated); assay: BLI, peptide on sensor;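 further: octet RED96e biolayer interferometry with biotin-conjugated NRP2 peptides spanning isoform-specific regions (human and mouse) loaded on biosensors, antibodies applied at 50 nM, association read over 300 s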
# Procedure: as §2, §3
# [11] = molecular target: T8, NRP2a_scan 3 peptide (biotinylated); assay: BLI, peptide on sensor
# Procedure: as §2, §3
# [12] = molecular target: Short NRP2A peptide (biotinylated) (human, biotin-conjugated, site not stated); assay: BLI, peptide on sensor
# [13] = molecular target: T9, Mid-NRP2A peptide (biotinylated); assay: BLI, peptide on sensor
# Procedure: as §2, §3
# [14] = molecular target: T10, NRP2a_scan 7 peptide (biotinylated); assay: BLI, peptide on sensor
# Procedure: as §2, §3
# [15] = molecular target: T11, NRP2a_scan 6 peptide (biotinylated); assay: BLI, peptide on sensor
# Procedure: as §2, §3
# [16] = molecular target: T16, Human NRP2a v2 (926aa) in pBiT2.1-C with C-terminal split NanoLuc tag, expressed in Expi293 cells (human, UniProt O60462 23-931); assay: CCL21-induced NRP2a/CCR7 receptor dimerization (NanoBiT, Example 7); mark beside the epitope box
# T16 construct: cDNA Origene RCC220706, isoform 2; also called pBiT2.1-C-NRP2v2 (isoform 2); NRP2 v2; not shown: vector-encoded spacer and small split NanoLuc fragment (pBiT2.1-C)
# [17] = molecular target: T5, NRP2a_scan 5 peptide (biotinylated); assay: BLI, peptide on sensor, 50 nM antibody
# [18] = molecular target: T17, mNRP2A peptide (biotinylated) (mouse, biotin-conjugated, site not stated); assay: BLI, peptide on sensor, 50 nM antibody
# T17 construct: also called mouse NRP2 isoform a peptide
# [19] = molecular target: T9, Mid-NRP2A peptide (biotinylated); assay: BLI, peptide on sensor, 50 nM antibody
# [20] = molecular target: T11, NRP2a_scan 6 peptide (biotinylated); assay: BLI, peptide on sensor, 50 nM antibody
# [21] = molecular target: T1, NRP2b peptide (biotinylated); assay: peptide ELISA
# [22] = molecular target: T15, mNRP2b peptide (biotinylated); assay: BLI, peptide on sensor, 50 nM antibody
# [23] = molecular target: T12, Mid-mNRP2A peptide (biotinylated); assay: BLI, peptide on sensor
# Procedure: as §2, §3
# T15 sequence (peptide, as listed by the source): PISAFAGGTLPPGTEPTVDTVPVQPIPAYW
Binder,binding result [2],binding result [3],binding result [4],binding result [5],binding result [6],binding result [7],binding result [8],binding result [10],binding result [11],binding result [12],binding result [13],binding result [14],binding result [15],binding result [18],binding result [22],binding result [23],further results
B1,no binding,no binding,binds,binds,no binding (tested: 50 nM),no binding (tested: 50 nM),no binding (tested: 50 nM),no binding (tested: 50 nM),no binding (tested: 50 nM),no binding (tested: 50 nM),no binding (tested: 50 nM),no binding (tested: 50 nM),no binding (tested: 50 nM),–,–,–,binding result [1]: no binding (tested: 50 nM); binding result [9]: no binding (tested: 50 nM)
B2,no binding,binds,binds,–,no binding (tested: 50 nM),–,no binding (tested: 50 nM),no binding (tested: 50 nM),no binding (tested: 50 nM),no binding (tested: 50 nM),–,no binding (tested: 50 nM),–,binds,–,–,blocks receptor dimerization [16]: < 50%; binding result [17]: binds; binding result [19]: binds; binding result [20]: binds; binding result [21]: no binding (tested: <3x blank)
B3,–,binds,binds,binds,no binding (tested: 50 nM),no binding (tested: 50 nM),no binding (tested: 50 nM),no binding (tested: 50 nM),no binding (tested: 50 nM),no binding (tested: 50 nM),no binding (tested: 50 nM),no binding (tested: 50 nM),no binding (tested: 50 nM),binds,binds,no binding (tested: 50 nM),–
B4,–,binds,binds,binds,no binding (tested: 50 nM),no binding (tested: 50 nM),no binding (tested: 50 nM),no binding (tested: 50 nM),no binding (tested: 50 nM),no binding (tested: 50 nM),no binding (tested: 50 nM),no binding (tested: 50 nM),no binding (tested: 50 nM),binds,binds,no binding (tested: 50 nM),–

# Reference: patent US20240417476A1 (ATYR PHARMA, published 2024)
